Reference: US20030224992A1, “Transcription factor modulators and uses thereof” (Praecis Pharmaceuticals Inc., priority 2002, published 2003)
Read-outs that look alike come from different tables or passages of the source.

How the values were obtained:
[1] = molecular target: T1, Androgen receptor DNA binding domain (GST-ARDBD) (UniProt P10275 P10275:560-632); assay: FP; scrambled MPS control, competition with FAM-ARE; settings: tags: GST fusion; chain copies: 2
[2] = molecular target: T1, Androgen receptor DNA binding domain …; assay: FP; scrambled control, competition with FAM-ARE; settings: tags: GST fusion; chain copies: 2
[3] = molecular target: T1, Androgen receptor DNA binding domain …; settings: tags: GST fusion; chain copies: 2
[4] = molecular target: T1, Androgen receptor DNA binding domain …; assay: FP; labelled probe, 1 nM with 50 nM GST-ARDBD; settings: tags: GST fusion; chain copies: 2; label: 5'-FAM on top strand
[5] = molecular target: T1, Androgen receptor DNA binding domain …; assay: FP; competition with 1 nM FAM-ARE, 50 nM GST-ARDBD; room temperature; settings: tags: GST fusion; chain copies: 2

T1 sequence (P10275 560-632, one chain of several): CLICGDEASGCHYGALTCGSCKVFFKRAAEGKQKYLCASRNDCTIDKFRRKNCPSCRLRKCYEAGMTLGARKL

B1: AREsc-MPS scrambled (dsDNA)
DNA 1: AGTCTACGAGTGGGGTTCTTTTTTA
DNA 2: TAAAAAAGAACCCCACTCGTAGACT
modifications: membrane permeable peptide Ac-…-NH2 conjugate
binding result [1]: no binding

B2: AREsc scrambled (dsDNA)
DNA 1: AGTCTACGAGTGGGGTTCTTTTTTA
DNA 2: TAAAAAAGAACCCCACTCGTAGACT
binding result [2]: no binding

B3: ARE duplex (dsDNA)
DNA 1: AGTCTGGTACAGGGTGTTCTTTTTA
DNA 2: TAAAAAGAACACCCTGTACCAGACT
binding result [3]: binds

B4: FAM-ARE duplex (dsDNA)
DNA 1: AGTCTGGTACAGGGTGTTCTTTTTA
DNA 2: TAAAAAGAACACCCTGTACCAGACT
binding result [4]: binds

B5: ARE-MPS duplex (dsDNA)
DNA 1: AGTCTGGTACAGGGTGTTCTTTTTA
DNA 2: TAAAAAGAACACCCTGTACCAGACT
modifications: membrane permeable peptide Ac-…-NH2 conjugated at 5' of top strand
binding result [5]: binds
